Target: T1, Plasmodium yoelii P36 with a C-terminal mCherry tag (P36^mCherry) (Plasmodium yoelii, UniProt Q7RPW4 25-310)
T1 construct: P36, Plasmodium yoelii 17X, 6-cys s48/45 family, two s48/45 domains; predicted MW with mCherry 66 kDa; also called Py P36^mCherry; not shown: mCherry, C-terminal, kept
T1 sequence: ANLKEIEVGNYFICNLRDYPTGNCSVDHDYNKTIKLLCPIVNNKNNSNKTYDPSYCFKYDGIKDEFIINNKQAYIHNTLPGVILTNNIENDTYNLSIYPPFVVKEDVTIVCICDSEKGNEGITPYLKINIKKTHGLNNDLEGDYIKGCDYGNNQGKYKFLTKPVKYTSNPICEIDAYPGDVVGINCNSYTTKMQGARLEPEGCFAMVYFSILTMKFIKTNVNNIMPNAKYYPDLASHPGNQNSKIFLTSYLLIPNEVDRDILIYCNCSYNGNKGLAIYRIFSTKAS
Assay: affinity purification with mass spectrometry; BS3-crosslinked P36^mCherry sporozoite lysate immunoprecipitated with RFP-Trap, S-Trap digest, LC-MS/MS (Q-Exactive HF), spectral counting
Conditions: partners not purified

B1: Plasmodium yoelii P52 (natural protein)
chain: NVPNPNTTIGHFEICEVNTSSGDAEECVLENEFGKMFLFICDIDYNEMSKNIVLPSECAKKTYIDHVNPNGTSPEVNTYDIFPDLIAANESQFRDKFYFYGTPYSSKDIDFICLCFSETKPDIKHVMKMSFKKMTKKIKGCDFGDNIPTKKDLTNGKALYENSSCHIYAYPGDVIGINCYKKDINNIYNNNLELQPNNCFHNVYYEDDILLSSKNLIPNSRVIPDPSNDVKLSKMHSYMSYIILPDEINENVKISCACKRDEYIGTMFLYVNTSKNILTSPDNNVEEIAPLNDHYISIGDMWDMGLHENPEQIQGIISNHANKKYYEHMKIYKSNKMDSSDDDESNETESSENESNERTHNGNRANKDANNSEKMTGNRRKKNNSINNTNYYSNYEDDNGINISTHDKYYEDQHFGNNGPLRKKRTFWQNMFGTS
notes: P52, Plasmodium yoelii 17X, 6-cys s48/45 family, two s48/45 domains; predicted MW 53 kDa; also called Py P52; source: endogenous, P. yoelii P36^mCherry salivary gland sporozoite lysate
  stoichiometry N: ~1

Reference: PMC6280682, “The Micronemal Plasmodium Proteins P36 and P52 Act in Concert to Establish the Replication-Permissive Compartment Within Infected Hepatocytes” (Frontiers in Cellular and Infection Microbiology, 2018)
